Results taken from the Human Domainome abundance scans (Beltran et al. 2025).
± gives the uncertainty stated by the source.

B1: Cell division cycle and apoptosis regulator protein 1, residues 625 to 674; numbered along this chain, Q8IX12 (parent)
chain: ISTPTHWSKLDPKTMKVNDLRKELESRALSSKGLKSQLIARLTKQLKVEE
B2: Transcription factor SOX-11, residues 50 to 117; numbered along this chain, P35716 (parent)
chain: KRPMNAFMVWSKIERRKIMEQSPDMHNAEISKRLGKRWKMLKDSEKIPFIREAERLRLKHMADYPDYK

Variants of: B1
Test: abundance fitness (aPCA) (normalised: wild type 0, dead -1); higher = more abundant; growth selection in yeast, the domain comes from the species named
Details: Homo sapiens

Abundance fitness of substitutions, site by site:
S36: E -0.151 ± 0.047; Y -0.115 ± 0.043; K -0.118 ± 0.062; T -0.049 ± 0.052; M -0.169 ± 0.05; V -0.105 ± 0.043
S2: R -0.021 ± 0.032; W -0.083 ± 0.05; T 0.079 ± 0.053; A -0.072 ± 0.033; Q -0.06 ± 0.068; C 0.029 ± 0.047; F 0.103 ± 0.073
S30: N 0.126 ± 0.055; H -0.152 ± 0.064; P 0.036 ± 0.048; W -0.283 ± 0.043
K22: R -0.023 ± 0.03; I -0.065 ± 0.047; F -0.16 ± 0.06; H 0.024 ± 0.039; W -0.209 ± 0.036; D -0.239 ± 0.075; Q -0.136 ± 0.057
K35: N -0.212 ± 0.054; F -0.419 ± 0.08
M15: N -0.942 ± 0.13; E -0.949 ± 0.11; V -0.745 ± 0.058; D -0.775 ± 0.057; I -0.711 ± 0.072; G -0.94 ± 0.046; L -0.172 ± 0.034
E23: R -1.07 ± 0.062; N -0.563 ± 0.16; M -0.965 ± 0.13; F -0.737 ± 0.076; Q -0.228 ± 0.06
K16: P -0.15 ± 0.038; T -0.142 ± 0.056; F -0.191 ± 0.077; C -0.048 ± 0.066
P12: D -1.02 ± 0.25; G -0.655 ± 0.035; T -0.207 ± 0.04; C -0.223 ± 0.034; F -0.762 ± 0.2; L -0.189 ± 0.041; A -0.142 ± 0.05
K47: C -0.265 ± 0.058; W -0.334 ± 0.053; E -0.23 ± 0.05; L -0.151 ± 0.036; I -0.179 ± 0.06; Y -0.261 ± 0.057; T -0.131 ± 0.062
S8: V -0.304 ± 0.047; R -0.189 ± 0.057; D -0.126 ± 0.043; N -0.09 ± 0.03; E -0.006 ± 0.055; P -0.616 ± 0.16; T -0.113 ± 0.038; I -0.407 ± 0.063
W7: Y -0.051 ± 0.042; M -0.122 ± 0.037; P -0.101 ± 0.06; F -0.022 ± 0.063
I1: A 0.049 ± 0.29; N -0.33 ± 0.093; G -0.261 ± 0.08; V -0.11 ± 0.046; C -0.398 ± 0.18; L -0.3 ± 0.085; W -0.478 ± 0.1
L29: D -0.732 ± 0.1; E -0.46 ± 0.046; S -0.368 ± 0.031; H -0.286 ± 0.066; F -0.112 ± 0.058; K -0.226 ± 0.056; R -0.213 ± 0.031; V -0.476 ± 0.034
T43: A -0.01 ± 0.047; Y -0.281 ± 0.082; E -0.117 ± 0.037; I -0.05 ± 0.06; P -0.721 ± 0.043
A28: F 0.003 ± 0.052; W -0.053 ± 0.041; H -0.108 ± 0.076; G 0.145 ± 0.033; P -0.782 ± 0.064; E 0.038 ± 0.055; I 0.074 ± 0.064; C 0.054 ± 0.057; Q 0.151 ± 0.042; M 0.072 ± 0.036; Y 0.181 ± 0.069
N18: C 0.051 ± 0.036; V 0.05 ± 0.027; K 0.124 ± 0.029; H 0.042 ± 0.029; I 0.077 ± 0.027
L34: N -0.157 ± 0.067; T -0.06 ± 0.045; P -0.011 ± 0.055; W -0.151 ± 0.034; S -0.016 ± 0.037; A -0.111 ± 0.03; K 0.079 ± 0.038; I -0.069 ± 0.041; R 0.048 ± 0.034
L46: G -0.787 ± 0.051; I -0.146 ± 0.047; V -0.258 ± 0.035; M -0.023 ± 0.055; Y -0.617 ± 0.11
K9: F -0.317 ± 0.06; Q 0.04 ± 0.043; E -0.068 ± 0.07; H -0.091 ± 0.049; W -0.235 ± 0.052; T -0.125 ± 0.055; A -0.016 ± 0.036
E49: V -0.906 ± 0.067; M -0.937 ± 0.056; Y -1.21 ± 0.32; I -0.943 ± 0.19; L -0.983 ± 0.043
L20: H -0.752 ± 0.16; C -0.416 ± 0.077; M -0.115 ± 0.032; N -1.08 ± 0.22; Q -0.621 ± 0.076; S -0.859 ± 0.058; Y -0.751 ± 0.11; P -0.899 ± 0.092; F -0.65 ± 0.067
A40: I -0.186 ± 0.065; H 0.1 ± 0.064; F 0.032 ± 0.059; C -0.07 ± 0.046; S -0.028 ± 0.033; R 0.019 ± 0.042
D19: H 0.045 ± 0.034; R -0.073 ± 0.029; T -0.047 ± 0.03; G -0.196 ± 0.035; L 0.021 ± 0.029; N 0.063 ± 0.032; C -0.02 ± 0.037; I -0.044 ± 0.034
S26: Q 0.001 ± 0.061; W 0.047 ± 0.029; H 0.053 ± 0.074; T 0.106 ± 0.047; A 0.088 ± 0.048; C 0.08 ± 0.04; G 0.089 ± 0.035; I -0.012 ± 0.068; D 0.031 ± 0.062; M 0.073 ± 0.051
D11: R 0.078 ± 0.035; S 0.051 ± 0.039; I 0.066 ± 0.034; Q 0.072 ± 0.04; V -0.038 ± 0.042
G33: Q -0.819 ± 0.05; M -1.03 ± 0.13; C -1 ± 0.073; K -0.939 ± 0.071; Y -1.03 ± 0.17
R21: A -0.192 ± 0.045; E -0.541 ± 0.036; P -0.682 ± 0.098; W -0.53 ± 0.055; Q -0.259 ± 0.087; C -0.039 ± 0.048; D -1 ± 0.17; M 0.036 ± 0.049
P4: V -0.033 ± 0.033; R 0.075 ± 0.039; S 0.15 ± 0.046; T -0.035 ± 0.049
R27: Q -0.845 ± 0.098; Y -0.995 ± 0.21; F -1.02 ± 0.16; V -0.678 ± 0.055; M -0.591 ± 0.082; P -0.784 ± 0.12
S31: P -0.062 ± 0.045; W -0.097 ± 0.029; G 0.014 ± 0.027; K -0.132 ± 0.057; E -0.106 ± 0.044; D -0.156 ± 0.05
E50: R -0.27 ± 0.068; A -0.21 ± 0.079; T -0.535 ± 0.26; D -0.495 ± 0.11
R41: V -0.417 ± 0.043; S -0.271 ± 0.035; A -0.377 ± 0.059; K -0.202 ± 0.03; E -0.212 ± 0.045; N -0.235 ± 0.045; D -0.434 ± 0.096; H -0.374 ± 0.051; L -0.331 ± 0.041
L38: K -0.324 ± 0.046; F -0.866 ± 0.085; N -0.666 ± 0.086; Q -0.366 ± 0.046; R -0.583 ± 0.046
T3: Y 0.124 ± 0.07; C -0.025 ± 0.038; P -0.162 ± 0.055; F -0.121 ± 0.06; H -0.288 ± 0.083
Q45: K -0.015 ± 0.062; F -0.237 ± 0.052; P -0.872 ± 0.06
L10: M -0.107 ± 0.038; D -0.748 ± 0.038; A -0.474 ± 0.041; W -0.953 ± 0.068; V -0.231 ± 0.033; N -0.516 ± 0.069; C -0.338 ± 0.05; S -0.577 ± 0.033
V48: K 0.009 ± 0.053; Y -0.207 ± 0.082; P -0.795 ± 0.046; C -0.113 ± 0.038
L42: F -0.56 ± 0.073; M -0.206 ± 0.057; P -0.472 ± 0.076; E -0.547 ± 0.053; T -0.585 ± 0.053
V17: M 0.065 ± 0.061; H -0.165 ± 0.066; R -0.139 ± 0.035; I 0.013 ± 0.046; A -0.093 ± 0.028; C 0.115 ± 0.049; G -0.146 ± 0.031
K32: W -0.089 ± 0.049; D -0.092 ± 0.043; Y -0.138 ± 0.045; V -0.233 ± 0.032; S -0.142 ± 0.042; E -0.104 ± 0.032; H -0.05 ± 0.062
H6: I -0.014 ± 0.058; A 0.014 ± 0.036; W -0.135 ± 0.05; R -0.092 ± 0.041; K -0.008 ± 0.05; N 0.054 ± 0.045; T -0.05 ± 0.048; Q -0.062 ± 0.044; G -0.132 ± 0.042
Q37: C -0.04 ± 0.054; F -0.256 ± 0.047; Y -0.274 ± 0.042; E 0.058 ± 0.051; H -0.455 ± 0.11; P -0.231 ± 0.054; K -0.108 ± 0.037; M -0.042 ± 0.034
K13: A -0.094 ± 0.034; P -0.187 ± 0.047
E25: F -0.568 ± 0.038; A -0.443 ± 0.056; Q -0.097 ± 0.035
T14: D -0.061 ± 0.037; S -0.005 ± 0.046; P -0.798 ± 0.079; L -0.131 ± 0.047; N 0.038 ± 0.065
L24: G -0.905 ± 0.064; D -0.881 ± 0.13; V -0.685 ± 0.038; N -0.991 ± 0.13; Q -0.891 ± 0.071; E -0.665 ± 0.053
I39: A -0.145 ± 0.042; N -0.26 ± 0.049; V 0.022 ± 0.046; Y -0.279 ± 0.042; G -0.286 ± 0.035; S -0.205 ± 0.048; P -0.366 ± 0.066; E -0.102 ± 0.047
T5: R -0.103 ± 0.039; W -0.616 ± 0.053; S 0.042 ± 0.034
K44: M -0.355 ± 0.058; S -0.19 ± 0.04; D -0.167 ± 0.069; H -0.246 ± 0.07

Variants of: B2
Test: as above
Details: Homo sapiens

Abundance fitness, by site and new letter:
D66: Y -0.36 ± 0.087; L -0.226 ± 0.11; I -0.382 ± 0.13; P -0.234 ± 0.28; Q -0.115 ± 0.29; T -0.657 ± 0.24; S -0.368 ± 0.091; V -0.545 ± 0.18; R -0.38 ± 0.31; H -0.115 ± 0.18
K68: C 0.354 ± 0.28; S -0.093 ± 0.33; Y 0.314 ± 0.24; L -0.642 ± 0.4; T -0.139 ± 0.37; N 0.163 ± 0.33
Y67: F -0.097 ± 0.093; R -0.163 ± 0.1; S 0.175 ± 0.073; M 0.222 ± 0.27; A 0.149 ± 0.14; N 0.203 ± 0.053; C -0.048 ± 0.1; T -0.044 ± 0.12; K -0.007 ± 0.24; H 0.089 ± 0.056; L 0.098 ± 0.083; W 0.17 ± 0.22; P 0.151 ± 0.11; D 0.283 ± 0.056; I -0.027 ± 0.097; V -0.214 ± 0.11
